Data as given in patent US20260139057A1 (University of California, published 2026).
Residue numbers refer to the chain shown, from its start.

Legend:
[1] = biological target: T1, recombinant human integrin αvβ8 ectodomain (human, UniProt P06756 31-992; P26012 43-681); test: cell-based or functional assay
[2] = biological target: T1, recombinant human integrin αvβ8 …; test: cell-based or functional assay; remark: listed apart in the source
[3] = biological target: T1, recombinant human integrin αvβ8 …; test: cell-based or functional assay; remark: listed apart in the source
[4] = biological target: T1, recombinant human integrin αvβ8 …; test: KinExA; antibody format and antigen form not stated
[5] = biological target: T2, human integrin αvβ8 on transfected cells (CHO cells stably transfected; HEK 293 cells stably expressing αvβ8) (human, UniProt P06756 31-1048; P26012 43-769); test: flow cytometry on unfixed CHO cells expressing human αvβ8, antibody titrated, hyperbolic least-squares fit (m3 = KD); curves on D00025 [Cont.]
T2 construct: whole, on cells; also called CHO αvβ8 cells; αvβ8 expressing CHO cells
Description: (§1) FIG. 17: Characterization of cell surface binding of humanized affinity optimized anti-αvβ8 antibodies. The cell surface binding affinities of H4C8, H4G9, H4C10, H4G8 compared to HuC6D4F12 expressed as IgG4 (S228P to prevent arm exchange, R409K and L445P to reduce aggregation and to promote stability). […] Cell surface affinity was determined using the least-squares fit model based on the hyperbolic equation y=m1+m2*m0/(m3+m0), where y=MFI at different avb8 concentrations; m0=αvβ8 concentration; m1=MFI with no αvβ8; m2=MFI at saturation; and m3=KD.
(§2) FIG. 18: Binding characteristics of H4C8 of formalin fixed αvβ8 compared to HuC6D4F12 or ADWA11 2.4 (from Pat no. US2020/0079855 A1). CHO αvβ8 expressing cells were fixed in 2% buffered formalin in PBS for 15 min at RT and then stained at the indicated concentrations as described in FIG. 17. The binding affinities to unfixed or formalin fixed cells is shown. Cell surface affinity was determined using the least-squares fit model based on the hyperbolic equation y=m1+m2*m0/(m3+m0), where y=MFI at different αvβ8 concentrations; m0=αvβ8 concentration; m1=MFI with no αvβ8; m2=MFI at saturation; and m3=KD.

[6] = biological target: T2, human integrin αvβ8 on transfected …; test: flow cytometry on CHO cells expressing human αvβ8 fixed in 2% buffered formalin for 15 min, antibody titrated, hyperbolic least-squares fit (m3 = KD); curves on D00025 [Cont.]
Description: as §1, §2

[7] = biological target: T1, recombinant human integrin αvβ8 …; test: cell-based or functional assay; remark: listed apart in the source
[8] = biological target: integrin αvβ6 ectodomain (immobilized) (human, UniProt P06756 31-992; P18564 22-709); test: cell-based or functional assay
[9] = biological target: T3, integrin αvβ1 ectodomain (immobilized) (Homo sapiens (Human), UniProt P06756 31-992; P05556 21-728); test: binding to immobilized integrin ectodomains blocked with BSA
T3 construct: R&D Systems; copies: 1 + 1
T3 sequence (P06756 31-992 limits assumed, chain 1 of 2): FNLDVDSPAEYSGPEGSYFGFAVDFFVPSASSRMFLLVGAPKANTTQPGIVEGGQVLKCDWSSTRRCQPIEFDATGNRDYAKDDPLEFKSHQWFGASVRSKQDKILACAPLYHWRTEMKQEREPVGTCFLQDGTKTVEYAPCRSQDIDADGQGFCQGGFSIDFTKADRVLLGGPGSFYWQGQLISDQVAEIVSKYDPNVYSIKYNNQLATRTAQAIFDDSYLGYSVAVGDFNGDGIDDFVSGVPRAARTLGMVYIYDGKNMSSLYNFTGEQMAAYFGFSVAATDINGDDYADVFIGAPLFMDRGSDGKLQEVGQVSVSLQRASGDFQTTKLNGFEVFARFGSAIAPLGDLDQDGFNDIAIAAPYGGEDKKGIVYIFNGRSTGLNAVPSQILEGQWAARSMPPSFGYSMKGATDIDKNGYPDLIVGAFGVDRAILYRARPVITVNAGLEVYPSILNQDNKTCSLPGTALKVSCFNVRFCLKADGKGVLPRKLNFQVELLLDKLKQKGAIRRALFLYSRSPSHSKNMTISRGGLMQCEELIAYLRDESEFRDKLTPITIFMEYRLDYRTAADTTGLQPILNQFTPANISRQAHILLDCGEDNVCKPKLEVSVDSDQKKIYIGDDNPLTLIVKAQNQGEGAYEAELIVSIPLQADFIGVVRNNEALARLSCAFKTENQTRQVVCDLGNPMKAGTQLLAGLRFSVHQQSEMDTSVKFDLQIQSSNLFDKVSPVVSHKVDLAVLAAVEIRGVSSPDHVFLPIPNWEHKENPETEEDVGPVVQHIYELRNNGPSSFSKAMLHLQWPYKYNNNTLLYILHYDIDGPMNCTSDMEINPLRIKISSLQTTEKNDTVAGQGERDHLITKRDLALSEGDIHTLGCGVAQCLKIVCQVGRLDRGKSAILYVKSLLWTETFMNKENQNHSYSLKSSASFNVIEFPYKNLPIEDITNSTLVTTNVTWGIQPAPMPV
T3 sequence (P05556 21-728 limits assumed, chain 2 of 2): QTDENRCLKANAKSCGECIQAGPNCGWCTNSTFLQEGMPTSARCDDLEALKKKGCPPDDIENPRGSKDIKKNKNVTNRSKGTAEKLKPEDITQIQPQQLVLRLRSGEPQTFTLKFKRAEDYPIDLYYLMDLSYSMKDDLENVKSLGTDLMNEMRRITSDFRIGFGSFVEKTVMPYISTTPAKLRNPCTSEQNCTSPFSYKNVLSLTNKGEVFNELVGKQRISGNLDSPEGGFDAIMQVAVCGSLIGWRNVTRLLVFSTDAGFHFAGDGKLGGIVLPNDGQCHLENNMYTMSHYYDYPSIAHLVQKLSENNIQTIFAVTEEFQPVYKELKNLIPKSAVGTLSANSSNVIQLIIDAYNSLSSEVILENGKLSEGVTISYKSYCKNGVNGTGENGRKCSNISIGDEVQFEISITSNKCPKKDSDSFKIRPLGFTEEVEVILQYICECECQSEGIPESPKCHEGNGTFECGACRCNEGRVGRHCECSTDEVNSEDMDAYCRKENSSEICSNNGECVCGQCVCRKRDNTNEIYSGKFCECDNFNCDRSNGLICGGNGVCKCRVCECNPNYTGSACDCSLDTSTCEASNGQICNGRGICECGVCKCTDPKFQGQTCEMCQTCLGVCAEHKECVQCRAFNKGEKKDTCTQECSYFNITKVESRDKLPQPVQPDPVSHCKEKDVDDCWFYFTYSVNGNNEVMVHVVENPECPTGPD

[10] = biological target: T4, integrin αvβ5 ectodomain (immobilized) (Homo sapiens (Human), UniProt P06756 31-992; P18084 24-719); test: as above
T4 construct: R&D Systems; copies: 1 + 1
T4 sequence (P06756 31-992 limits assumed, chain 1 of 2): as the sequence (P06756 31-992 limits assumed, chain 1 of 2) above
T4 sequence (P18084 24-719 limits assumed, chain 2 of 2): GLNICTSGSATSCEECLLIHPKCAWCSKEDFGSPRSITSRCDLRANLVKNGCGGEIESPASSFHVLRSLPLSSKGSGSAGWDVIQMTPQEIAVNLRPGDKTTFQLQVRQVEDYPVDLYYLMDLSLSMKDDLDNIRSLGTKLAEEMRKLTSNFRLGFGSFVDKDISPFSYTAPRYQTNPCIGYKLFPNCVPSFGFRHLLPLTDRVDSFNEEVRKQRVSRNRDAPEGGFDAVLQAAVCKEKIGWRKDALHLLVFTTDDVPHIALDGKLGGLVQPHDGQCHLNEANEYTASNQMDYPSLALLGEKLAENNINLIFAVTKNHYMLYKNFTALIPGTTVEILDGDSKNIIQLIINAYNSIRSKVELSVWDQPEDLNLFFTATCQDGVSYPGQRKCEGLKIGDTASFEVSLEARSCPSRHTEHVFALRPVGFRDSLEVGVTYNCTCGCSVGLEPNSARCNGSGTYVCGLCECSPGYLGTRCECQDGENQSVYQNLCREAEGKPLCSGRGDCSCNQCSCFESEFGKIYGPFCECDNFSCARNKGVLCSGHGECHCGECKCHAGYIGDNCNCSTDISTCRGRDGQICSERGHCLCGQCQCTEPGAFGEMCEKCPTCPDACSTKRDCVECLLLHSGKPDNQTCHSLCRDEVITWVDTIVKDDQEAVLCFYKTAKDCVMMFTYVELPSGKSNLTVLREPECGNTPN

[11] = biological target: T5, integrin αvβ3 on HEK 293 cells stably expressing αvβ3 (Homo sapiens (Human), UniProt P06756 31-1048; P05106 27-788); test: flow cytometry on HEK 293 cells stably expressing αvβ3
T5 construct: also called αvβ3 expressing 293 cells
T5 sequence (P06756 31-1048 limits assumed, chain 1 of 2): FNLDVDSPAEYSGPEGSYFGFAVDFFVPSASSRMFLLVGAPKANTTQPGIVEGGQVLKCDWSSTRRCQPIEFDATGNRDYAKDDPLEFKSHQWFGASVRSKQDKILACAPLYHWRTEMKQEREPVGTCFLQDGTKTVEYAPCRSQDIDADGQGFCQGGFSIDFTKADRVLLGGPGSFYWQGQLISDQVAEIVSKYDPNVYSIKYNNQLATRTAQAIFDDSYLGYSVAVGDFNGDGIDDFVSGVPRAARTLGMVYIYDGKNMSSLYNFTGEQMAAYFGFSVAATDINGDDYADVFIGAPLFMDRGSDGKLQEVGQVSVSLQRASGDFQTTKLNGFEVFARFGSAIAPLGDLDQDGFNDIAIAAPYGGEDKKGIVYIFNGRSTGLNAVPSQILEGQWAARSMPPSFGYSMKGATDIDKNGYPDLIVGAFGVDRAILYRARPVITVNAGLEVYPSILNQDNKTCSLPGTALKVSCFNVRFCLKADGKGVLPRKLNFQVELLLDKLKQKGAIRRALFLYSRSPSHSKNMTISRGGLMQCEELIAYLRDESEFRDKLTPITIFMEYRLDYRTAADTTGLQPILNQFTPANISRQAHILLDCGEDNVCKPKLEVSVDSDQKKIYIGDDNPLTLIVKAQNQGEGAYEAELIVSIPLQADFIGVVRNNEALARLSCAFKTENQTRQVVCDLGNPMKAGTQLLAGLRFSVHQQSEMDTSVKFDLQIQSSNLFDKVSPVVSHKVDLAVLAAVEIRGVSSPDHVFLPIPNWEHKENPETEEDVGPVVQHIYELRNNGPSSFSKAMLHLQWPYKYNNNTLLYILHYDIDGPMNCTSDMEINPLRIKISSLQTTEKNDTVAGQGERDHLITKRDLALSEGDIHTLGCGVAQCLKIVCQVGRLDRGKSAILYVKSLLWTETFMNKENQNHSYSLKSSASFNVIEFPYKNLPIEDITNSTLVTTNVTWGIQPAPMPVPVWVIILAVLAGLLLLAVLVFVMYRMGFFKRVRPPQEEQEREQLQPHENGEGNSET
T5 sequence (P05106 27-788 limits assumed, chain 2 of 2): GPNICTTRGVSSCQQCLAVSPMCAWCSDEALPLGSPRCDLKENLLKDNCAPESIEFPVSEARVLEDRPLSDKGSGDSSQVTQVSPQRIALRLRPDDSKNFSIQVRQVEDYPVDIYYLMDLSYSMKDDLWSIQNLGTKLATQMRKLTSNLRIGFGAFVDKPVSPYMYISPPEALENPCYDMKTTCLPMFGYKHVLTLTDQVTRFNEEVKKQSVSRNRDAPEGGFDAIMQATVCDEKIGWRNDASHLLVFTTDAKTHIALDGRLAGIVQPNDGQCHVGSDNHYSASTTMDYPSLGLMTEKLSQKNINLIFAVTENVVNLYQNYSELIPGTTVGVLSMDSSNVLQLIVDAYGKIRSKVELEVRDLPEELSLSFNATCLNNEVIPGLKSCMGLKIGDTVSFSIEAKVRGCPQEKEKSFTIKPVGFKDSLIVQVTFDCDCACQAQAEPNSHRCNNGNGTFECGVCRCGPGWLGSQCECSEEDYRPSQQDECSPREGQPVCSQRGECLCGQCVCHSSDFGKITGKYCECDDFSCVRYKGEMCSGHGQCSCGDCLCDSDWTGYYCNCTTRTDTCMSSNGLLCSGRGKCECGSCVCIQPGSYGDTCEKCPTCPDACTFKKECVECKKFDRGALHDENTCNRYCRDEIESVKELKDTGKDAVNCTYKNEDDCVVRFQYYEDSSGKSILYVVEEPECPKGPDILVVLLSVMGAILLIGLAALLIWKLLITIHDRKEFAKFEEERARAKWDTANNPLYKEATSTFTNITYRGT
Source text: A) Binding of anti-β3 (AP3) relative to F12 IgG4, H4C8 RGD1 IgG4,H4C8 RGD3 IgG4, H3C8 RGD3 with VL Fr4 V108/L109 (mouse) IgG4, H4C8 RGD3 IgG4, H3C8 RGD3 VL Fr4 K108/V109 (human) IgG4, H4C8 RGD1 VH Fr3 E72, H4C8 RGD3 VH Fr3 E72 IgG4. HEK 293 cells stably expressing αvβ3 were stained and the percentage of relative binding to the mean fluorescence intensity of AP3 is shown, B) Expi293 cells transiently expressing αvβ6 were stained and the percentage of relative binding to the mean fluorescence intensity of 3G9 is shown, C) HEK 293 cells stably expressing αvβ8 were stained and the percentage of relative binding to the mean fluorescence intensity of HuF12 is shown. All primary antibodies were used at 2.5 ug/ml. […] Binding or 3G9 is shown and percent binding of antibodies relative to 3G9 binding to αvβ6 is shown. Dotted line indicate binding observed with each positive control antibody,
RGD ligands bind promiscuously to a number of integrins. A highly desirable quality in RGD-mimetics is to retain specificity for some but not all integrins. One highly desirable property would be a dual inhibitor to both the αvβ8- and αvβ6-integrins, without cross-reactivity to other integrins. This property would facilitate specific targeting of integrin-mediated TGF-β activation without the liability of side-effects mediated by broadly blocking other integrins. We first measured binding to αvβ3 expressing 293 cells. Binding of anti-β3 (AP3) relative to F12 IgG4, H4C8 RGD1 IgG4,H4C8 RGD3 IgG4, H3C8 RGD3 with VL Fr4 V108/L109 (mouse) IgG4, H4C8 RGD3 IgG4, H3C8 RGD3 VI Fr4 K108/V109 (human) IgG4, H4C8 RGD1 Vh Fr3 E72, H4C8 RGD3 Vh Fr3 E72 IgG4. […] Expi293 cells transiently expressing αvβ6 were stained and the percentage of relative binding to the mean fluorescence intensity of anti-β6 (3G9) determined.

[12] = biological target: T3, integrin αvβ1 ectodomain (immobilized); test: binding to immobilized ectodomains
[13] = biological target: T4, integrin αvβ5 ectodomain (immobilized); test: binding to immobilized ectodomains

T1 sequence (P06756 31-992 limits assumed, chain 1 of 2): as the sequence (P06756 31-992 limits assumed, chain 1 of 2) above
T1 sequence (P26012 43-681 limits assumed, chain 2 of 2): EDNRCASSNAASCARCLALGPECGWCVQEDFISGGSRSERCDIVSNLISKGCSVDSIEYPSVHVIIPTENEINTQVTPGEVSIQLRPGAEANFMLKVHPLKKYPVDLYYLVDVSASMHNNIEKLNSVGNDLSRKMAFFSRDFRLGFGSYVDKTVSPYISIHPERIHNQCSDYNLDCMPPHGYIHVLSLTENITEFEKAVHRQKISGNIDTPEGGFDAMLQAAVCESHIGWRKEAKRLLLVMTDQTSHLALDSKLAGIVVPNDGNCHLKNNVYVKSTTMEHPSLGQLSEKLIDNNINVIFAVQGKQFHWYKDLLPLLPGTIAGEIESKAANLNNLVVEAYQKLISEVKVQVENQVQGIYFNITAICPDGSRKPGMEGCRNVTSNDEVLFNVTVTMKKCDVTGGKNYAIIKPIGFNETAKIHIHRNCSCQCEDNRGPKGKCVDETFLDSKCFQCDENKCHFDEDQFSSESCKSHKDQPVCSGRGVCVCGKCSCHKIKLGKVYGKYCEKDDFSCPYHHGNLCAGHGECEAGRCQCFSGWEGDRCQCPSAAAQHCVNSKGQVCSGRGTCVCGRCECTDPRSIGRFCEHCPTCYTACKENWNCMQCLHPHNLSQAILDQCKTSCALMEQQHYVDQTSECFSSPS

B1: HuC6D4 IgG2a (antibody, V domains shown)
VH: QIQLVQSGAEVKKPGASVKISCKASGYTFTDYSMHWVRQAPGQGLEWVARINTETGEPTFADDFRGRFTVTLDTSTSTAYLEIRSLRSDDTAVYFCAIFYYGRDTWGQGTTLTVSS
VL: EIVMTQSPATLSVSPGERVTMSCKSSQSLLNSRSRKNYLAWYQQKPGQAPRLLIYWASTRESGVPARFSGSGSGTEFTLTISSVQSEDFAVYYCKQSYNLLSFGQGTVLEIKR
- EC50 of inhibition of αvβ8-mediated TGF-β activation [1]: 230 nM
- IC50 of the inhibition of TGF-β activation (TMLC GARP/TGF-β1 reporter cells on αvβ8-coated wells) [2]: 3.1 mg/L
- ED50 of the inhibition of αvβ8-mediated TGF-β activation (immobilized αvβ8, TMLC GARP/L-TGF-β reporter cells) [3]: 0.23 mg/L

B2: huC6D4 VH with huF12 VL, murine IgG2a (antibody, V domains shown)
VH: B1 VH
VL: B1 VL with N31H
- IC50 of the inhibition of TGF-β activation (TMLC GARP/TGF-β1 reporter cells on αvβ8-coated wells) [2]: 1.15 mg/L

B3: H3.C12, human IgG4 (antibody, V domains shown)
VH: QVQLVQSGAEVKKPGASVKVSCKVSGYTLTEQSMHWVRQAPGKGLEWMGRINTETGEPTYAQKFQGRVTMTQDTSTDTAYMELSSLRSEDTAVYFCAIFYYGRDTWGQGTTVTVSS
VL: B1 VL with K24R, N31H, S34T, S62T, V84L
- EC50 of inhibition of αvβ8-mediated TGF-β activation [1]: 250 nM
- ED50 of the inhibition of αvβ8-mediated TGF-β activation (immobilized αvβ8, TMLC GARP/L-TGF-β reporter cells) [3]: 0.25 mg/L

B4: HuC6D4F12 (format not stated) (antibody, V domains shown)
VH: B1 VH with D31K
VL: B1 VL with N31H
notes: also called HuF12; huF12
- Kd [4]: 0.00236 nM
- Kd [5]: 2.6 nM
- Kd [6]: 6.4 nM

B5: huF12 VH with huC6D4 VL, murine IgG2a (antibody, V domains shown)
VH: B1 VH with D31K
VL: B1 VL
- IC50 of the inhibition of TGF-β activation (TMLC GARP/TGF-β1 reporter cells on αvβ8-coated wells) [2]: 0.337 mg/L

B6: H4C8m (H4C8 with non-humanized, murine VL Fr4), human IgG4 (antibody, V domains shown)
VH: B3 VH with E31R
VL: B1 VL with M21L, K24R, N31H, S62T, V84L
- EC50 of inhibition of αvβ8-mediated TGF-β activation [1]: 300 nM
- ED50 of the inhibition of αvβ8-mediated TGF-β activation (immobilized αvβ8, TMLC GARP/L-TGF-β reporter cells) [3]: 0.03 mg/L

B7: HuC6D4 RGD3, mouse IgG2a (antibody, V domains shown)
VH: B1 VH
VL: EIVMTQSPATLSVSPGERVTMSCKSSQSLLGRGDLGRLKKNALAWYQQKPGQAPRLLIYWASTRESGVPARFSGSGSGTEFTLTISSVQSEDFAVYYCKQSYNLLSFGQGTVLEIKR
notes: Mouse IgG2a
- ED50 of the inhibition of αvβ8-mediated TGF-β activation (immobilized human αvβ8, TMLC GARP/L-TGF-β reporter cells) [7]: 3.3 mg/L
- ED50 of the inhibition of αvβ6-mediated TGF-β activation (immobilized human αvβ6, TMLC GARP/L-TGF-β reporter cells) [8]: 1.54 mg/L
- binding result [9]: no binding
- binding result [10]: no binding

B8: HuC6D4 (format not stated) (antibody, V domains shown)
VH: B1 VH
VL: B1 VL
- Kd [4]: 0.0821 nM

B9: H4C8 RGD3, human IgG4 (antibody, V domains shown)
VH: B3 VH with E31R
VL: B7 VL with M21L, S66T, V88L, V112K, L113V
notes: also called H4C8 RGD3 IgG4
- ED50 of the inhibition of αvβ8-mediated TGF-β activation (immobilized human αvβ8, TMLC GARP/L-TGF-β reporter cells) [7]: 0.02 mg/L
- ED50 of the inhibition of αvβ6-mediated TGF-β activation (immobilized human αvβ6, TMLC GARP/L-TGF-β reporter cells) [8]: 0.03 mg/L
- binding result [11]: no binding (tested: 2.5 µg/ml)
- binding result [9]: no binding
- binding result [10]: no binding

B10: H4C8 RGD1, human IgG4 (antibody, V domains shown)
VH: B3 VH with E31R
VL: EIVMTQSPATLSVSPGERVTLSCKSSQSLLRRGDLATIHGNALAWYQQKPGQAPRLLIYWASTRETGVPARFSGSGSGTEFTLTISSLQSEDFAVYYCKQSYNLLSFGQGTKVEIKR
notes: also called H4C8 RGD1 IgG4
- ED50 of the inhibition of αvβ8-mediated TGF-β activation (immobilized human αvβ8, TMLC GARP/L-TGF-β reporter cells) [7]: 0.07 mg/L
- ED50 of the inhibition of αvβ6-mediated TGF-β activation (immobilized human αvβ6, TMLC GARP/L-TGF-β reporter cells) [8]: 0.04 mg/L
- binding result [11]: no binding (tested: 2.5 µg/ml)
- binding result [9]: no binding
- binding result [10]: no binding

B11: H3C8 RGD3, human IgG4 (VL Fr4 K108/V109, human) (antibody, V domains shown)
VH: B3 VH
VL: B7 VL with M21L, S66T, V88L, V112K, L113V
notes: also called H3C8 RGD3 VL Fr4 K108/V109 (human) IgG4
- binding result [12]: no binding
- binding result [13]: no binding
- ED50 of the inhibition of αvβ8-mediated TGF-β activation (immobilized human αvβ8, TMLC GARP/L-TGF-β reporter cells) [7]: 0.84 mg/L
- ED50 of the inhibition of αvβ6-mediated TGF-β activation (immobilized human αvβ6, TMLC GARP/L-TGF-β reporter cells) [8]: 0.07 mg/L
- binding result [11]: no binding (tested: 2.5 µg/ml)
